Where a chain is given by its changes, count along the chain named.
B1: m-TAMRA-labeled Nb40 (VHH)
VHH: QVQLVESGGGLVQPGGSLRLSCVASGTIYAINRMGWYRQAPGKQRELVALITLGGGTNYGDSVKGRFTISRDNAKNTGYLQMNSLKPEDTAVYYCKVESSGYTDVFWGQGTQVTVSS
B2: Nb40 (VHH)
VHH: B1 VHH
B3: m-TAMRA-labeled Nb39 (VHH)
VHH: QVQLVESGGGLVQAGGSLRLSCRASGGTFSTYAMGWFRQVPGKERETVAAVKWSGDMTYYADSVKGRFTISRDNAKNTVYLQMNSLRPEDTAVYYCAARRGLSYYRGPSEYDYWGQGTQVTVSS
B4: Nb39 (VHH)
VHH: B3 VHH
B5: m-TAMRA-labeled Nb1 (VHH)
VHH: QVQLVESGGGLVQAGGSLRLSCVASGRIFSGNAMGWYRQAPGRQRELVAGITNGGYTNYRQFVKGRFTISRDNAKRTVYLQMNSLKPEDTAVYYCNALDREARQVDYWGQGTQVTVSS
B6: Nb1 (VHH)
VHH: B5 VHH
B7: Nb23 (VHH)
VHH: QVQLVESGGGLVQAGGSLRLSCAASGRTFSRYTMGWFRQAPGKDREFVARITTSGAVTTYADSAKGRFTISRDNAKNTVYLQMNTLKPEDTAVYYCAAGQGQLSSQSRFVDYWGQGTQVTVSS
B8: m-TAMRA-labeled Nb17 (VHH)
VHH: QVQLVESGGGLVQPGGSLRLSCAASGSNIGYMAWYRQAPGSQRELVARIASGGSANYADSVKGRFTISRDNVKNTVYLHMNSLKPVDTAVYYCHADAWYNSRWSDYWGQGTQVTVSS
B9: Nb17 (VHH)
VHH: B8 VHH
B10: m-TAMRA-labeled Nb6 (VHH)
VHH: QVQLVESGGGLVQAGGSLRLSCAASGSIFSPTAMGWYRQAPGKERELVAGITSGGYTNYRNFARGRFTISRDNAKKTVYLQMNSLNPEDTAVYYCNTLTISWSWGQGTQVTVSS
B11: Nb6 (VHH)
VHH: B10 VHH
B12: m-TAMRA-labeled Nb36 (VHH)
VHH: QVQLVESGGGLVQPGGSLRLSCAASGSIRSITTSAWFRQPPGKQRELVAGISSGTSTNYADSVKGRFTISRDNAKNTVYLQMNSLKPEDTAVYYCHVWISGTWYSGQGTQVTVSS
B13: Nb38 (VHH)
VHH: B12 VHH with T32A, F37Y, S56T, V97A, Y104I
B14: m-TAMRA-labeled Nb38 (VHH)
VHH: B12 VHH with T32A, F37Y, S56T, V97A, Y104I
B15: Nb36 (VHH)
VHH: B12 VHH
B16: m-TAMRA-labeled Nb22 (VHH)
VHH: QVQLVESGGGLVQAGGSLRLSCAASGRTFSSYTMGWFRQAPGKEREFVAAIRWSGGSTYYADSVKGRFTISRDNAKNTVYLQMNSLKPEDTAVYYCAASDRGGFIATSGGWMDYWGKGTQVTVSS
B17: Nb22 (VHH)
VHH: B16 VHH
B18: m-TAMRA-labeled Nb42 (VHH)
VHH: QVQLVESGGGLVQAGGSLRLSCAASGDVNYAVGWFRQAPRKEREFVAAINWRGDNTDYTDSVKGRFTISRDNAKNTVYLQMNSLKPEDTAVYYCAAKSAPYWYSDIAPDYWGQGTQVTVSS
B19: Nb42 (VHH)
VHH: B18 VHH

Experiments:
[1] = target: T1, full-length human LRRK2 (leucine-rich repeat kinase 2) (human, UniProt Q5S007); assay: MST
endogenous (mouse) LRRK2 = endogenous (mouse) LRRK2 (Mus musculus, UniProt Q5S006); assay: pull-down
Chain of endogenous (mouse) LRRK2 (Q5S006 whole entry): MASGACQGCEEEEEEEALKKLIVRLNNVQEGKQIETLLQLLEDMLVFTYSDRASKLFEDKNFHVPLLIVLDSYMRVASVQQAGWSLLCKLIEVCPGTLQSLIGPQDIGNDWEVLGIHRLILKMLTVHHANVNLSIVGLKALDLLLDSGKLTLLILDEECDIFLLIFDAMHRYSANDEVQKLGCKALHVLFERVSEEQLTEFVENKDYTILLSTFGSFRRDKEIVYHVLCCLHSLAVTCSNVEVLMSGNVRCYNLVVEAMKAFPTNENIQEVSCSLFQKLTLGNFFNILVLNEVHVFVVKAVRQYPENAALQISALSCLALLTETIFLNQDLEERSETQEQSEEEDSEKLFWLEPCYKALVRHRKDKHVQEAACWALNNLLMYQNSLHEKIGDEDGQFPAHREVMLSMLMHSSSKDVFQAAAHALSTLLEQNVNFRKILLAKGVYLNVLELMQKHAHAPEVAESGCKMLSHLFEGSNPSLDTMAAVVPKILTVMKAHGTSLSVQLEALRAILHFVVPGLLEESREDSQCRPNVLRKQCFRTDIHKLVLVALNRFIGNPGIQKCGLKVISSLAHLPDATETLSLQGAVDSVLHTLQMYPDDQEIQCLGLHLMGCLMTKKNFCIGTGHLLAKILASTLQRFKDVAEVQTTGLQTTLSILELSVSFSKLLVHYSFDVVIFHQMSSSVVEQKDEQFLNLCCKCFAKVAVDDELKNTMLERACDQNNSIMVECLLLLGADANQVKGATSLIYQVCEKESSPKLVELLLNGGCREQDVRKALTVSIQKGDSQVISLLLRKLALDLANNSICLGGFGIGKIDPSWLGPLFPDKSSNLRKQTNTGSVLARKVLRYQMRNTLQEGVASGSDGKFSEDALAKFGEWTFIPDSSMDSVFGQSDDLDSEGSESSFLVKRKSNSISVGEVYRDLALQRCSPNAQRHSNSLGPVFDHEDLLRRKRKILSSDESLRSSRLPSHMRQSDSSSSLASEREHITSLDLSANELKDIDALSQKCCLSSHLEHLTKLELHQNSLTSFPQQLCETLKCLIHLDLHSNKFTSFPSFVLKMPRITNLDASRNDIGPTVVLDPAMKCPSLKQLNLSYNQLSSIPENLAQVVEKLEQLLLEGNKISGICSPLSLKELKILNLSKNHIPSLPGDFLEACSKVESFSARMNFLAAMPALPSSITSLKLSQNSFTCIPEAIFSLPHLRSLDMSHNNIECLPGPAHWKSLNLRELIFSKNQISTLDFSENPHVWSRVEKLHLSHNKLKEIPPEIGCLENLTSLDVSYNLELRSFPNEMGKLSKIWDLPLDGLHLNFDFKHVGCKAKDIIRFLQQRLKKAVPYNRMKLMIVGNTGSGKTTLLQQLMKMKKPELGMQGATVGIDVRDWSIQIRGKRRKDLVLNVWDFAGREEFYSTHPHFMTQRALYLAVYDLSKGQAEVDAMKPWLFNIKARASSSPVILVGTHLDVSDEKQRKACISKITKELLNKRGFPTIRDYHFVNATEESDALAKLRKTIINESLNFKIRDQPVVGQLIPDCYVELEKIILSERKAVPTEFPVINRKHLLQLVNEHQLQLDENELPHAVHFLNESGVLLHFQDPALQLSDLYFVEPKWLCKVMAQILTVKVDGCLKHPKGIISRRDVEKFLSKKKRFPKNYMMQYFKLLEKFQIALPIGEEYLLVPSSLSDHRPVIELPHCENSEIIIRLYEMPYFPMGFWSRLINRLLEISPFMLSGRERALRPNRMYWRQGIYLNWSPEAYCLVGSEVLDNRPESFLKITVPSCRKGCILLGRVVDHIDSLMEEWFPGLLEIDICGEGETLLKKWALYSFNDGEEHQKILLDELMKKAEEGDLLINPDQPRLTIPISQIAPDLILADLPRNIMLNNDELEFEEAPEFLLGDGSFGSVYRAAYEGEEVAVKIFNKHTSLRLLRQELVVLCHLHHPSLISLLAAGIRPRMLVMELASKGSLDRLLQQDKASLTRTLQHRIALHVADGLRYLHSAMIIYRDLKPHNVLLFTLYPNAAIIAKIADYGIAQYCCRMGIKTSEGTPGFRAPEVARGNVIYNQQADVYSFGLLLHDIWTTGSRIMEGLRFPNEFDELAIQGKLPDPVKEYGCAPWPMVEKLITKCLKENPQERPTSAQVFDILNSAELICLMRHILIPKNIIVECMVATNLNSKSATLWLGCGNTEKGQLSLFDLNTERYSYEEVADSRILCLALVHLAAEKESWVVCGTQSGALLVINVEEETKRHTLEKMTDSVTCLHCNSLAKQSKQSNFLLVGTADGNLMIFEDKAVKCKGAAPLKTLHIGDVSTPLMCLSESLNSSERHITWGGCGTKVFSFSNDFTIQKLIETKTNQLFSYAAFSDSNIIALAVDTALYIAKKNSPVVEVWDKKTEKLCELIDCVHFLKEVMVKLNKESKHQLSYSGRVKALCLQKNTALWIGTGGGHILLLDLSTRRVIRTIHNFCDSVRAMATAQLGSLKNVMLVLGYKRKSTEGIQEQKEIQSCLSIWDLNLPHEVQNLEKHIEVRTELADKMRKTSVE

[2] = target: LRRK2 Roc-COR-Kinase-WD40 (RCKW) domain construct (Homo sapiens, UniProt Q5S007, biotinylated (in the BLI experiment)); assay: BLI
[3] = target: T1, full-length human LRRK2 (leucine-rich …); assay: BLI
[4] = target: LRRK2 RocCOR domain construct (Homo sapiens, UniProt Q5S007); assay: ELISA
LRRK2 Roc domain = LRRK2 Roc domain (Homo sapiens, UniProt Q5S007); assay: ELISA
Chain of LRRK2 Roc domain (Q5S007 1328-1511): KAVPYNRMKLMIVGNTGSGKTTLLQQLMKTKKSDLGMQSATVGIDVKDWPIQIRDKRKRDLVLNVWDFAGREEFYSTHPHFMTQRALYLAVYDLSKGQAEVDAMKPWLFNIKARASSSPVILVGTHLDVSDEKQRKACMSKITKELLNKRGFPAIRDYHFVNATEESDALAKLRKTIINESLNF

[5] = target: LRRK2 C-terminal subdomain of COR (COR-B) (Homo sapiens, UniProt Q5S007); assay: ELISA
[6] = target: LRRK2 kinase-WD40 (K-WD40) two-domain construct (Homo sapiens, UniProt Q5S007); assay: ELISA
[7] = target: T1, full-length human LRRK2 (leucine-rich …); assay: enzyme kinetics
[8] = target: LRRK2 N-terminal armadillo (ARM) domain construct (Homo sapiens, UniProt Q5S007); assay: ELISA
[9] = target: T1, full-length human LRRK2 (leucine-rich …); assay: ELISA
[10] = target: T1, full-length human LRRK2 (leucine-rich …); assay: MST; remark: listed apart in the source

Binder | Kd [1] [nM] | binding result (endogenous (mouse) LRRK2) | Kd [2] [nM] | Kd [3] [nM] | further results
B1 | 26 ± 10 |  |  |  | 
B2 |  | binds | 2.6 ± 0.3 | 2.5 ± 0.3 | 
B3 | 79 ± 19 |  |  |  | 
B4 |  | binds |  | 12 ± 3 | binding result [4]: no binding; binding result (LRRK2 Roc domain): no binding; binding result [5]: no binding; binding result [6]: no binding; binding result [2]: no binding
B5 | 91 ± 28 |  |  |  | 
B6 |  | binds | 39 ± 4 | 55 ± 12 | Ki [7]: 16000 nM; Kiu^app (apparent Ki for ATP-bound LRRK2) [7]: 30000 nM
B7 |  | binds | 17 ± 7 | 20 ± 5 | Ki [7]: 9000 nM; Kiu^app (apparent Ki for ATP-bound LRRK2) [7]: 72000 nM
B8 | 67 ± 24 |  |  |  | 
B9 |  | binds |  | 2 ± 0.3 | binding result [8]: no binding; EC50 [9]: ~3 nM; EC50 in presence of Rab8a (20 µM) [9]: ~5 nM; binding result [4]: no binding; binding result (LRRK2 Roc domain): no binding; binding result [5]: no binding; binding result [6]: no binding; binding result [2]: no binding
B10 | 83 ± 24 |  |  |  | 
B11 |  | binds | 5 ± 1 | 8 ± 1 | Ki [7]: 5000 nM; Kiu^app (apparent Ki for ATP-bound LRRK2) [7]: 8000 nM
B12 | 78 ± 25 |  |  |  | 
B13 |  | binds |  | 37 ± 4 | binding result [8]: no binding; binding result [4]: no binding; binding result (LRRK2 Roc domain): no binding; binding result [5]: no binding; binding result [6]: no binding; binding result [2]: no binding
B14 | 48 ± 11 |  |  |  | 
B15 |  | binds |  | 16 ± 8 | binding result [8]: no binding; binding result [4]: no binding; binding result (LRRK2 Roc domain): no binding; binding result [5]: no binding; binding result [6]: no binding; binding result [2]: no binding
B16 | 145 ± 55 |  |  |  | 
B17 |  | binds | 5 ± 1 | 10 ± 1 | 
B18 |  |  |  |  | Kd [10]: 94 ± 30 nM
B19 |  | binds | 18 ± 2 | 58 ± 18 | 
